Experimental data as given in publication PMC9478642.

B1: human T-plastin, full length, wild type [human] / F-actin (filaments of α-actin) [not stated] (parent)
chain 1: MDEMATTQISKDELDELKEAFAKVDLNSNGFICDYELHELFKEANMPLPGYKVREIIQKLMLDGDRNKDGKISFDEFVYIFQEVKSSDIAKTFRKAINRKEGICALGGTSELSSEGTQHSYSEEEKYAFVNWINKALENDPDCRHVIPMNPNTDDLFKAVGDGIVLCKMINLSVPDTIDERAINKKKLTPFIIQENLNLALNSASAIGCHVVNIGAEDLRAGKPHLVLGLLWQIIKIGLFADIELSRNEALAALLRDGETLEELMKLSPEELLLRWANFHLENSGWQKINNFSADIKDSKAYFHLLNQIAPKGQKEGEPRIDINMSGFNETDDLKRAESMLQQADKLGCRQFVTPADVVSGNPKLNLAFVANLFNKYPALTKPENQDIDWTLLEGETREERTFRNWMNSLGVNPHVNHLYADLQDALVILQLYERIKVPVDWSKVNKPPYPKLGANMKKLENCNYAVELGKHPAKFSLVGIGGQDLNDGNQTLTLALVWQLMRRYTLNVLEDLGDGQKANDDIIVNWVNRTLSEAGKSTSIQSFKDKTISSSLAVVDLIDAIQPGCINYDLVKSGNLTEDDKHNNAKYAVSMARRIGARVYALPEDLVEVKPKMVMTVFACLMGRGMKRV
chain 2: not shown

Variants of: B1
Assay: sequential low-speed/high-speed F-actin cosedimentation assay
Conditions: with F-actin (filaments of α-actin); 5 μM actin, 2 μM plastin; read off a plot; scale: proportion of T-plastin in low-speed pellet

response	Variant
0.04	chain 1 F191A

Same assay, conditions: with F-actin (filaments of α-actin); 5 μM actin, 2 μM plastin; read off a plot; scale: proportion of T-plastin in low-speed plus high-speed pellet

response	Variant
0.42	chain 1 F191A
